Test [1] deals with T1, human LAG3 expressed on cells (human, UniProt P18627 23-525).
T1 construct: whole, on cells
T1 sequence (looked up): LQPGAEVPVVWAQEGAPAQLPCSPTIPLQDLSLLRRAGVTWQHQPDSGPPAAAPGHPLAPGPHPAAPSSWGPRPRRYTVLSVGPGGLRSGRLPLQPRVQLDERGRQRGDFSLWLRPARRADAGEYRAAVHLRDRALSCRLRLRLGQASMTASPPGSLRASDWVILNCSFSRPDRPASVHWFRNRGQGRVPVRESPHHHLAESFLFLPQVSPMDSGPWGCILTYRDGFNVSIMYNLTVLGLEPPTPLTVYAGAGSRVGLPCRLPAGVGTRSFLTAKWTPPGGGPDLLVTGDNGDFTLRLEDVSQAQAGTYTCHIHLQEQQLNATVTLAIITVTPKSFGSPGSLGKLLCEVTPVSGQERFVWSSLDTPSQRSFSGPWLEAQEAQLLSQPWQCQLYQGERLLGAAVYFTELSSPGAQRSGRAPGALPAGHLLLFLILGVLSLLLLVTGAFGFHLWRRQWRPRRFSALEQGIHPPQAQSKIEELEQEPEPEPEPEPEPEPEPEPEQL
The test can be described thus: FACS, 293T-hLAG3 cells. The method, then:
5) The prepared antibody samples were added to the 96-well plate according to the platemap, the cells were resuspended and incubate at 4° C. for 1 hour.
7) 3% BSA/1xPBS was used to dilute Goat polyclonal Secondary Antibody to Human IgG-Fc (DyLight® 650) to the desired concentration (1:200), in which the cells were resuspended and incubated at 4° C. for 1 hour.
9) The cells were resuspended in 200 µl of 3% BSA/1xPBS, and performed flow cytometric testing by Shsti Biotech Inc.
For orientation: Flow cytometry measures light scatter and fluorescence of single cells or particles in a stream.

Test [2] deals with T2, LAG3 Protein, Human, Recombinant (His Tag) (Sino Biological Catalog No. 16498-H08H) (human, UniProt P18627 23-450).
T2 construct: Bought protein; also called hLAG3-His; LAG3-His; not shown: His tag
T2 sequence (looked up): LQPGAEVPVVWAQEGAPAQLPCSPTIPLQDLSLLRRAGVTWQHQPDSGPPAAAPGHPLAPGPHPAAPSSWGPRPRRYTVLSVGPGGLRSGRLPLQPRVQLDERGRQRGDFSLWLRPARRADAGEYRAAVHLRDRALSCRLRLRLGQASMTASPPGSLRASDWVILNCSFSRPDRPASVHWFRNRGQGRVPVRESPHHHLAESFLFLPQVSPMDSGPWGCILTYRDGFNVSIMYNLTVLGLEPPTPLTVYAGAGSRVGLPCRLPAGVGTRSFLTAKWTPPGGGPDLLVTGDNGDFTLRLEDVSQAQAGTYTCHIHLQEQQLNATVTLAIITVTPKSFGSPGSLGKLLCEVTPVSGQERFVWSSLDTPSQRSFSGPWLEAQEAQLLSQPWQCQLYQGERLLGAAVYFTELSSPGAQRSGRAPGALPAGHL
The test can be described thus: ELISA, coated hLAG3-His. The method, then:
(§1) Plates were coated with 100 µL per well of Coating Solution, and then covered, and incubated overnight (12-18 hours) at 2-8° C. The wells were aspirated and washed 1 time with >200 µL of Wash buffer per well, inverted and tapped on absorbent paper to remove excess liquid. The plates were blocked with 200 µL per well with Blocking buffer (1×PBS+4% milk) for 1 hour at room temperature, aspirated, inverted, and tapped on absorbent paper to remove excess liquid. Standards and sample dilutions were prepared in Blocking buffer. 100 µL of standards (in duplicate) and samples were pipetted into designated wells. After incubation for 1 hour at room temperature with gentle continual shaking (~500 rpm), the wells were aspirate and washed 3 times with >200 µL of Wash buffer per well, inverted and tapped on absorbent paper to remove excess liquid.
(§2) The primary antibody solution was diluted with Blocking buffer. See Table 14 for recommended primary antibody dilution. 100 µL of the primary antibody solution was added into each well and incubated for 2 hours at room temperature with gentle continual shaking (~500 rpm). The wells were aspirated and washed 3 times with >200 µL of Wash buffer per well, inverted and tapped on absorbent paper to remove excess liquid. The working solution of secondary antibody was made with Blocking buffer by diluting the secondary antibody by 2,500 times. 100 µL of secondary antibody working solution was added into each well and incubated for 30 minutes at room temperature. The wells were aspirated and washed 5 times with >200 µL of Wash buffer per well, inverted and tapped on absorbent paper to remove excess liquid. 100 µL of TMB substrate solution (Biopanda, TMB-S-004) was added to each well and incubated for 30 minutes at room temperature. 100 µL of Stop solution (Solarbio, C1058) was added to each well. Absorbance at 450 nm was measured within 30 minutes of adding Stop solution. Results were calculated using a log-log or 4-parameter curve fit.
In general terms: In an ELISA, binding on a coated surface is turned into a signal by an enzyme label.

The target in test [3] is T1, human LAG3 expressed on cells. The test can be described thus: cell-based or functional assay.
Test [4] addresses T2, LAG3 Protein, Human, Recombinant (His …). The test can be described thus: ELISA, coated hLAG3-His. As to the method: as §1
as §2, with “well.” for “well. Absorbance at 450 nm was measured within 30 minutes of adding Stop solution. Results were calculated using a log-log or 4-parameter curve fit.”
The source holds these as a separate data set.

Data on six molecules can be found in US20230303690A1 (published 2023).

Like-named read-outs stand apart in the source and are kept apart here.

B1: sdAb No. 25-B7 (VHH)
VHH: QLQLVESGGGLVKPGGSLRLSCAASGSIESFSFMGWYRQAPGKQRELVAGFTGAASLSFSTYTDAVKGRFTISRDNAKNSVYLQMNSLRAEDTAVYFCNVDPWSQSWPGRYWGQGTTVTVSS
notes: Humanized sdAb No. 25; not shown: Fc part implied by anti-human IgG Fc detection
For the molecule B1, in test [1], a half-maximal response (EC50) required 0.6 nM, the “FACS signal at 0.061 nM” value turned out to be 191, the “FACS signal at 0.1829 nM” value was 487 and the “FACS signal at 0.5487 nM” value stood at 1110. Besides, in test [1], the “FACS signal at 1.6461 nM” value is 1690, the “FACS signal at 4.9383 nM” value is 2030, the “FACS signal at 14.815 nM” value came to 2210 and the “FACS signal at 44.445 nM” value was determined as 2480. Besides, the “FACS signal at 133.335 nM” value in test [1] was found to be 2380. In addition, in test [2], the concentration giving a half-maximal response (EC50) (commonly the concentration that produces a half-maximal response) was 2 nM, the “OD450 at 0.061 nM” value was 0.038, the “OD450 at 0.1829 nM” value was determined as 0.057 and the “OD450 at 0.5487 nM” value is 0.132. Besides, in test [2], the “OD450 at 1.6461 nM” value is 0.648, the “OD450 at 4.9383 nM” value amounted to 1.25, the “OD450 at 14.815 nM” value was 1.41 and the “OD450 at 44.445 nM” value was found to be 1.33. Further, the “OD450 at 133.335 nM” value in test [2] was found to be 1.66.

B2: combination of sdAbs 25 and 18 (other)
VHH 1: QLQLVESGGGLVQAGGSLRLSCAASGSIESFSFMGWYRQAPGKQRELVAGFTGAASLSFSTYTDAVKGRFTISRDNAKNTVYLQMNSLKPEDTAVYFCNVDPWSQSWPGRYWGQGTQVTVSS
VHH 2: QVQLVESGGGLVQPGGSLRLSCAASGFTLNEHAIGWFRRAPGKEREGVSCISSSDGSTYYHDSVKGRFNMSRDDAKNSVYLQMSSLKPEDTAIYYCAAALGRDCQGGQWKTSSWGQGTQVTVSS
Turning to B2, in test [3], the “IL-2, % of BMS, at 0.005080526 ug/mL” value was found to be 0%; the “IL-2, % of BMS, at 0.015241579 ug/mL” value amounted to 1.97%; the “IL-2, % of BMS, at 0.045724737 ug/mL” value is 13.2%; the “IL-2, % of BMS, at 0.137174211 ug/mL” value stood at 14.6%. In test [3], the “IL-2, % of BMS, at 0.411522634 ug/mL” value is 32.6%; the “IL-2, % of BMS, at 1.234567901 ug/mL” value worked out at 45.4%; the “IL-2, % of BMS, at 3.703703704 ug/mL” value was determined as 52.9%; the “IL-2, % of BMS, at 11.11111111 ug/mL” value is 52.5%. Further, in test [3], the “IL-2, % of BMS, at 33.33333333 ug/mL” value was determined as 65% and the “IL-2, % of BMS, at 100 ug/mL” value amounted to 66.5%.

B3: combination of sdAbs 25 and 27 (other)
VHH 1: QLQLVESGGGLVQAGGSLRLSCAASGSIESFSFMGWYRQAPGKQRELVAGFTGAASLSFSTYTDAVKGRFTISRDNAKNTVYLQMNSLKPEDTAVYFCNVDPWSQSWPGRYWGQGTQVTVSS
VHH 2: QVQLVESGGGLVQPGGSLRLSCAASGFTLDYYAIGWFRQAPGKEREGVSCIRSSDGSTYYADSVKGRFTISSDNTKNTVYLQMNSLKPEDTAVYYCATDRYSDCRGPYENWGQGTQVTVSS
Regarding B3, in test [3], the “IL-2, % of BMS, at 0.005080526 ug/mL” value was found to be 0%; the “IL-2, % of BMS, at 0.015241579 ug/mL” value amounted to 4.21%; the “IL-2, % of BMS, at 0.045724737 ug/mL” value was -1.96%; the “IL-2, % of BMS, at 0.137174211 ug/mL” value worked out at 10.8%. In addition, in test [3], the “IL-2, % of BMS, at 0.411522634 ug/mL” value is 39%; the “IL-2, % of BMS, at 1.234567901 ug/mL” value is 51.2%; the “IL-2, % of BMS, at 3.703703704 ug/mL” value amounted to 62.3%; the “IL-2, % of BMS, at 11.11111111 ug/mL” value was found to be 69.3%. In addition, in test [3], the “IL-2, % of BMS, at 33.33333333 ug/mL” value stood at 79.8% and the “IL-2, % of BMS, at 100 ug/mL” value was 83%.

B4: combination of sdAbs 25 and 2015 (other)
VHH 1: QLQLVESGGGLVQAGGSLRLSCAASGSIESFSFMGWYRQAPGKQRELVAGFTGAASLSFSTYTDAVKGRFTISRDNAKNTVYLQMNSLKPEDTAVYFCNVDPWSQSWPGRYWGQGTQVTVSS
VHH 2: QLQLVESGGGLAQTGGSLRLSCAAAGFTFDDTATGWFRQAPGKNREGVACISSSDGRIHYIDSAKGRFTISKDNAKKTVYLQMDSLKPEDTAVYYCAAARKGSTDCQGAIWGSWGQGTQVIVSS
Consider B4, for which, in test [3], the “IL-2, % of BMS, at 0.005080526 ug/mL” value came out at 0.0473%; the “IL-2, % of BMS, at 0.015241579 ug/mL” value worked out at 0.883%; the “IL-2, % of BMS, at 0.045724737 ug/mL” value was -2.03%; the “IL-2, % of BMS, at 0.137174211 ug/mL” value amounted to 0.439%. In addition, in test [3], the “IL-2, % of BMS, at 0.411522634 ug/mL” value was 3.96%; the “IL-2, % of BMS, at 1.234567901 ug/mL” value is 18.9%; the “IL-2, % of BMS, at 3.703703704 ug/mL” value was 43.6%; the “IL-2, % of BMS, at 11.11111111 ug/mL” value is 52.5%. In test [3], the “IL-2, % of BMS, at 33.33333333 ug/mL” value was 50.7% and the “IL-2, % of BMS, at 100 ug/mL” value came to 62.2%.

B5: sdAb No. 27-H1B3 (VHH)
VHH: QVQLVESGGGLVQPGGSLRLSCAASGFTLDYYAIGWFRQAPGKEREGVSCIRSSDASTYYADSVKGRFTISSDNSKNTVYLQMNSLRAEDTAVYYCATDRYSDCRGPYENWGQGTMVTVSS
notes: Humanized sdAb No. 27-H1; not shown: Fc part implied by anti-human IgG Fc detection
On to B5, for which, in test [1], a half-maximal effect (EC50) was put at 1.18 nM, the “FACS signal at 0.061 nM” value came to 234, the “FACS signal at 0.1829 nM” value is 585 and the “FACS signal at 0.5487 nM” value was found to be 1420. In test [1], the “FACS signal at 1.6461 nM” value was determined as 2810, the “FACS signal at 4.9383 nM” value came out at 3820, the “FACS signal at 14.815 nM” value is 4360 and the “FACS signal at 44.445 nM” value was determined as 4620. The “FACS signal at 133.335 nM” value in test [1] worked out at 4630. Besides, in test [2], the concentration giving a half-maximal response (EC50) came to 2.08 nM, the “OD450 at 0.061 nM” value was 0.038, the “OD450 at 0.1829 nM” value worked out at 0.057 and the “OD450 at 0.5487 nM” value was 0.212. In addition, in test [2], the “OD450 at 1.6461 nM” value came out at 1.15, the “OD450 at 4.9383 nM” value amounted to 2.53, the “OD450 at 14.815 nM” value was determined as 2.88 and the “OD450 at 44.445 nM” value was 2.91. For the same molecule, the “OD450 at 133.335 nM” value in test [2] was 2.99.

B6: sdAb No. 17-H5 (VHH)
VHH: QLQLVESGGGLVQPGGSLRLSCAASGLTLDAYAIGWFRQAPGKEREGLACISGSDASTHYLDSVKGRFTISRDNGKNTMALQMNSLQFGDTAIYYCAARRGSCSGSWTYWGQGTQVTVSS
notes: Modified sdAb No. 17 (CDR1 and CDR2 DG to DA); not shown: Fc part implied by anti-human IgG1 Fc detection
In the case of B6, in test [4], the EC50 was determined as 1.19 nM.
